Results from PMC11009412, “Pathogenic mutations of human phosphorylation sites affect protein–protein interactions” (Nature Communications, 2024).

Tested on: BirA*-FLAG-GATAD1 variants in Flp-In-293 cells
Assay: BioID proximity labelling of full-length GATAD1 variants (SILAC)
Assay type: cell-based, human
Conditions: GATAD1 WT vs S102P, significant proteins only; for Log2_Ratio.H.L.normalized.WT_S102P_forward: forward experiment (label swap performed, sign inverted against the H/L ratio); for Log2_Ratio.H.L.normalized.WT_S102P_forward / Log2_Ratio.H.L.normalized.WT_S102P_reverse: log2 of normalized H/L ratio; for Ratio.H.L.normalized.WT_S102P_forward: forward experiment; for Log2_Ratio.H.L.normalized.WT_S102P_reverse / Ratio.H.L.normalized.WT_S102P_reverse: reverse experiment
In short: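 Tetracycline-inducible Flp-In-293 T-REx lines expressing N-terminal BirA*-FLAG GATAD1 variants (WT, S102P, S102D, S102A) were SILAC-labelled, induced with 1 μg/mL tetracycline for 24 h and given 50 μM biotin overnight. Streptavidin-enriched proteins were trypsin-digested on-bead and analysed by LC-MS/MS. Label-swapped log2 SILAC ratios beyond ±1 defined differential proteins (n = 2).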

Row | Molecule | Log2_Ratio.H.L.normalized.WT_S102P_forward | Ratio.H.L.normalized.WT_S102P_forward | Log2_Ratio.H.L.normalized.WT_S102P_reverse | Ratio.H.L.normalized.WT_S102P_reverse
1 | HN1L (protein, UniProt Q9H910 1-190, looked up) Jupiter microtubule …: MFQVPDSEGGRAGSRAMKPPGGESSNLFGSPEEATPSSRPNRMASNIFGPTEEPQNIPKRTNPPGGKGSGIFDESTPVQTRQHLNPPGGKTSDIFGSPVTATSRLAHPNKPKDHVFLCEGEEPKSDLKAARSIPAGAEPGEKGSARKAGPAKEQEPMPTVDSHEPRLGPRPRSHNKVLNPPGGKSSISFY | 1.324 | 0.3994 | 1.259 | 2.3935
2 | SAP30BP (protein, UniProt Q9UHR5 1-308, looked up) SAP30-binding protein: MAGKKNVLSSLAVYAEDSEPESDGEAGIEAVGSAAEEKGGLVSDAYGEDDFSRLGGDEDGYEEEEDENSRQSEDDDSETEKPEADDPKDNTEAEKRDPQELVASFSERVRNMSPDEIKIPPEPPGRCSNHLQDKIQKLYERKIKEGMDMNYIIQRKKEFRNPSIYEKLIQFCAIDELGTNYPKDMFDPHGWSEDSYYEALAKAQKIEMDKLEKAKKERTKIEFVTGTKKGTTTNATSTTTTTASTAVADAQKRKSKWDSAIPVTTIAQPTILTTTATLPAVVTVTTSASGSKTTVISAVGTIVKKAKQ | 1.673 | 0.3135 | 1.201 | 2.2985
